Experimental findings from the NTF2 design screens of Basanta et al. (2020) are described below.

The data set can be described thus: protease stability score; higher = more stable; yeast display proteolysis, trypsin and chymotrypsin.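 Further: log10 excess protease needed over predicted unfolded state with 0 meaning unfolded.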
As to “DERDANEMMRVIREGDFNKFRQMADENVSAVYGDKTVRGRETIKRIIHRIKRHVDHLKVDSLSTTGDHVTVDAVMHVNGQRVHFVMVVRVQNGHIKEVQFEVRNEEAQKRLEQVLS”, the protease stability score amounted to 1.18. The result for “DDDARRVINDALEAMNSNNESQLAHLFDPNATFEVGDREIHGRDDFREWVRQMQEEMRFSVSVRDVQERPNHVKFDVEYEEEKNGNPDKHRAVLKARARNGKITELKLDNHK” reads 0.075. The result for “DEHNAHVLKQAMEAMATGDEKRFVELVDPNARMKVGDKEIKGREDFQEYLTDLHRHARVEVHHIHVNDNGDRFEIDVTQVIEINGRPDTKRMTLEAVAHNGQVKEINLRVPEEEWRRLER” reads 0.316; that for “DEKLHHQIKEFIKAMKNGDPDKVQELADPNAEFRVGDKEIHGMDKYHKTVHDRHRKQRVNIQLHQLTVKGDKAEFVVTIDVQHNGQPSNDVYRAVIKLKNGKIQVVDRQKDQ”, -0.138; that for “DDEKQVREVVTDFIQALEEGDEKRVRQLIDPNASADVGDRKYHGREQVAEMVREQMDQVDHIEFTLRKVEIQGEEVVVRVEVVLNHNGQEKQIHMTLIFVVKNGHLQLKEIHQD”, 1.37. For the sequence “DEEEAHKFQEAVERNDFEKFVRNADPNAHVQVGDQHIDGHDKMRKQYHDLKRAADKIEYKSIDVQGDKIDVKFTVRFNGREYEVHMQIEVHNGRLKTVKYDATSEHNRTILQEMMS”, the protease stability score is -0.032. For “DEEEQHKRAREYMQMFEDNDEKNLMHMADENARLVVGDKTYRGKEELSKQVREQKKRVDHNQVHSVRLHNGRVVIDVTLHHNGHREKRIIRVQLRNGRIKSIVYESG”, the protease stability score came out at 0.037.

Consider “DEDFMNKFEELLRNQQTGDPQFVADQADPNARWNVGDKQLHGRHQIRHQAKTESDQMEVQIDRMDVKVQNGHIDARINRQSNENGRPSRNELDQTVHYHNGKLKQLDESTSH”, for which the protease stability score is -0.44.

In turn, “DEQHDREMVSRLKTALQHGDPDELVELADENARVEIGEKTVHGRHQIREQAKRWRERVDHVQIEDVDVQNGQARVQMTVDHNGRTRKEVVQMTAHNGTVESLRFQSQ” showed a protease stability score of -0.216. “DEKEIRKLLQKMAKMFEEGNNEELRKLGDDDLQVTYGDEEYKGPDDLVKVLETVKKLGAKVEYKEVHVEGDTVTVKVEAEMGGRKARYKVKYQADGNKVKRFQVEYSEDAQKAIKEG” registered a protease stability score of 1.28. “DEEEHAKEFVKRLDKVNKKNDEESFEDLADENATFRYGDKTYRGREDMRKLVQDLRKRADHADVKLTRLELHNGQVRAEIDMRFRHDGRTHKDVFDAQLKVTNGTVKLTNLNQS” came in with a protease stability score of -0.059.

“DDDRKARDFWRKFKEVLDKGDSEENDKLVDENAKFEYGDKTLHGREDAMRWNKHLTTRVDHLRMEVEDFKVHNGKIDVQVRLDVNVNGQQRQHDVKLVAEIDGDKVKLHSLTVK”: the protease stability score was determined as 0.009. “DEKTERDQARKLIHILEEGDEEKMANLMDENAHIQVGDTTYSGREDVRRFMQSWSERVDRFSVHSITAHNGKIDIDVEFVVNGRKVQMDLRFHVENGRIKTDKFQFRDEDKFKDMQS” had a protease stability score of 0.295. The result for “DPKKLKEAVEKVIQAMEKGNVEEVVKLYKPDVKFVLGDQEFRGREDVKKQAKKFYTKGARFQLRKVEVKGDKVEVVVDVEVGGTRKTFKFTLKVEDDTVDEYEIRFTEEAKKAKEKG” reads 0.839; that for “DDQEDAEKAARRFNKIVNENNFDDLLNQFDPNARIQVGDKQYHGRSEISKFMQKWKRQIDHLEAHLKDVKVDNGRIDVKFKFQFHKNGTRVDRDMSLDARRQGDQINIQELHLG”, 0.198; that for “DEETKDWVDRFFQALHKNNEEELEQLMDPNAHINIGDKVWHGREEFRREHERQAKHWRFTQDITRIDVKGNKARLRVRFRMNYDGKPKDSKARIEIIIHNGKLKEYRQKDDG”, 0.351. The result for “DEKDNKTYADKVAEMLKHNDPRTARELVDPNAKVQVGDSEVHGREQIENLIKTWNEQVDHVEIKKYRVEGDKVEITFVAESNGKRTHFKVVLKVRNGRATHMTIKRK” reads 0.157. As for “DEEAERIIERYLEAVKTNDPEQMKEMADPNVKVKVGDKVIHGMEDAVKKVQHRLDEQRVEIKHVTLKVRNGRVNVEADVVVTHNGRPDRSKYHIDMEAHNGSAVYVRITDVS”, the figure is 1.38. Consider “DKEDVKKRAEELAEVLQTGDPRKMRDLADKDARLSIGDKEYHGREEISKWVDHMRRDVDHFKLDDVQASGNKMRLTFVLQHNGRRSKFDLDVKYSNGRAKELRFDRK”, for which the protease stability score worked out at 0.267. The sequence “DHKEETKKKDEARRVLETNDPRKKLKLMDPNARANVGDKRYHGREELKRRADEERKRVDHAEVKRVEANGDHIIVDFVFVVNGKTKRNSLNINMHNGRVKEVNVESR” came in with a protease stability score of -0.143. As for “DEKEAKKLLEQFAKKVVNGDYEEVVKHVKDDGEAEYGDERKHGPDAVETFIRKYQKLGIKVTYDEVHVEGDTVTVKVRADYAGQTAHFKFQYHVRDQRLDRVEVKYDETAQKMIKHG”, the figure is 0.542.

In the case of “DEENRQLAENFLTAMEDNNPEHLSELADPNAKFHYGNKRIHGREKFMHEVEHRNKRIRYSIKSYKITVSGDKIEIDLTFTFRHNGQPDERRRTIHMQMENGQIRSVEYNDNK”, the protease stability score came out at 0.337. The result for “DDQLFRVLQELWKALQEGDHKHAIDQAPEDARFHVGEKNYHGMEDAAKHLAEFYKQIRVRIEIKRYEINGDSLNVHVVVQMNNNGKPERRRNVILAKLHNGRMLEMQVHDRE” reads 0.064. As for “DDHEQRSLQELVKKNDEEKFAEQADKDVKVDVGDSRIHGREEWRKFVKRLKDRADHIEIHSVKADGEKLEVHREMTVDGRRVVYYVRYEVHNGRIKSISLQARTEDDQRKLQHVLS”, the figure is 0.919; as for “DEELQKLVDDLLQALRSNNPEQFENNFDPNAKIRYGEKDVHGRTRFVKELQRERDDARFRIETYRVDNQGDKASLKMVFQRDHNGQPQRHTARAEIVVKNGKVQTAVFNFDS”, -0.018. The result for “DREEHASQLFRDMQEVYHNNDPSKFKHLVDENVTRDVGDKTVHGQDEMAREMEKEARRVDKVRFDVRDVKSNNGRIKVRFVVTHNENGRERSSDVTVRFQVSNGRLVIESQTET” reads -0.206; that for “DEEQLKTFQQAMRDEEHGNEQRVRDLFDPNARVVYGDKVVHGREEMVKKLKRRKDEMRVELRVREYKVEEDHMSATLEVINDHNGKPDTDKQTVEARMNGDQFEQVNIQKDS”, 0.17; that for “DERKEMQKHFDRFVTALRENNPDQLREMADPDAKVRIGDKTLHGRDEVVHYLQLLAERADHISFDVKQFDVHNGVAHVDLRMRFTVNGQERHKDMIFVLNEVNGTVVIVQVQDK”, 1.72. “DQEENQKIAERIVKIIQTGDNEKAMKQVDKNVRIRVGEKEYHGRESAREHIREQKEQFDHATVDDMKVQGNKIVLKMRLDVNGVDMDVVIKVTVKNGTIKELHVEYRDREDQQKIES”: the protease stability score was 1.09. With “DEDHDVRVAENLLEAIRTGNEDEVTRLADENAELEIGDHRYHGREQVSSAAKRINDRADDISINEVHYTGDKLSVQMQMNVNGKNIVVDVVVVAHNGRVKTVRFQYTSEEDFKKFES”, the protease stability score was found to be 0.538.

On to “DENAERVLREIVKALEQGDPDRWKQNVDPNVKFRVGDKDVHGREEIVKTLSSLHDQIRFHVKFEHMDNQGDKIRADARVHQNVDGRPLSSSVVVRLTVHNGRVQEMRMNMDEHYVRDEQK”, for which the protease stability score came to 0.068.

Sequence “DEEDAHEQVHRIVKALETGDPDQVVNQADENVRIHVGEKTVHGQEKVREFVEEYNEQVDDVNVRHVSLDGNKATVTIDIDVNGNKRRVHFRFQFDNGRVQTIRVDTS” displayed a protease stability score of 0.719. The result for “DDEKLANEFQTKFRSVMETNDEENMRKLADKDARLNVGDDDVHGREQVARYLAEVLRRVDTFRVRYEDVDIRNGQVRVTMEIHNNHNGSDRTDRVHLQMEVTGDTASLKRITEG” reads 0.259; that for “DREQQHVAREFLEAHNEGDEDRMVQLADPNARVHVGDKEVHGREELKKWVRDVEKKMNVQIDVRSIHAHNGKIRITARISFKINGEPRSDRIRFDFRAHNGTLKDFHLKVSEEQRKKKQQ”, 0.075.
